Km data for 1 protein are collected here from ChEMBL document CHEMBL1132365, “A multisubstrate adduct inhibitor of AICAR transformylase” (J Med Chem, 1999).

Usually Km stands for the substrate concentration at which the rate is half of its maximum.

Substrate in data set [1]: NC1=NC(=O)C2N=C(CN(C=O)c3ccc(C(=O)N[C@H](CCC(=O)O)C(=O)O)cc3)C=CC2N1
The data set can be described thus: (§1) Substrate specificity towards AICAR formyltransferase.

Substrate in data set [2]: NC1=NC(=O)C2N[C@@H](CN(C=O)c3ccc(C(=O)N[C@H](CCC(=O)O)C(=O)O)cc3)CNC2N1
The data set is described as §1.

B1: Bifunctional purine biosynthesis protein ATIC (Homo sapiens), P31939 (protein)
chain: MAPGQLALFSVSDKTGLVEFARNLTALGLNLVASGGTAKALRDAGLAVRDVSELTGFPEMLGGRVKTLHPAVHAGILARNIPEDNADMARLDFNLIRVVACNLYPFVKTVASPGVTVEEAVEQIDIGGVTLLRAAAKNHARVTVVCEPEDYVVVSTEMQSSESKDTSLETRRQLALKAFTHTAQYDEAISDYFRKQYSKGVSQMPLRYGMNPHQTPAQLYTLQPKLPITVLNGAPGFINLCDALNAWQLVKELKEALGIPAAASFKHVSPAGAAVGIPLSEDEAKVCMVYDLYKTLTPISAAYARARGADRMSSFGDFVALSDVCDVPTAKIISREVSDGIIAPGYEEEALTILSKKKNGNYCVLQMDQSYKPDENEVRTLFGLHLSQKRNNGVVDKSLFSNVVTKNKDLPESALRDLIVATIAVKYTQSNSVCYAKNGQVIGIGAGQQSRIHCTRLAGDKANYWWLRHHPQVLSMKFKTGVKRAEISNAIDQYVTGTIGEDEDLIKWKALFEEVPELLTEAEKKEWVEKLTEVSISSDAFFPFRDNVDRAKRSGVAYIAAPSGSAADKVVIEACDELGIILAHTNLRLFHH
B1: the Km in data set [1] was found to be 102 µM; in data set [2], 68 µM.
